The results in this text go back to patent US20160222085A1 (CHILDREN S HOSPITAL OF PHILADELPHIA, published 2016).

Ends that are not written are not given here.

In test [1] the target is T1, FV-810 (FV-DT), Factor V with amino acids 811-1491 deleted from the B-domain (human, UniProt P12259 29-838; P12259 1520-2224).
T1 construct: range 1-810;range 1492-2196; Single-chain cofactor-like variant; All residue numbers count on mature Factor V (add 28 for the precursor)
Description: fluorescence anisotropy displacement; unlabeled BR titrated into 30 nM OG488-BR, 20 nM FV-810, 50 uM PCPS. The procedure:
(§1) Control experiments were performed by titrating FV-810 into buffer containing 10 mM EDTA (X) or by titrating rFVa (▴).
(§2) Data were analyzed by nonlinear least squares regression analysis using the Marquardt algorithm (Bevington et al. (1992) Data Reduction and Error Analysis for the Physical Sciences, pp. 141-167, McGraw-Hill, New York), and the quality of each fit was assessed as described (Straume et al. (1992) Methods Enzymol., 210:87-105).

Test [2] addresses T1, FV-810 (FV-DT), Factor V with amino …. Description: fluorescence anisotropy displacement of OG488-BR; 30 nM OG488-BR, 20 nM FV-810, 50 uM PCPS; stoichiometry of 1 assumed.
Test [3] shares this target. Description: global fit of prethrombin-2 activation rates (1-50 nM FXa, 0-1000 nM BR, 5 nM FV-810, 50 uM PCPS) to a tight, competitive binding model. The procedure:
as §2

Test [4] has the same target. Briefly: fluorescence anisotropy, displacement; human BR titrated into 30 nM OG488-BR, 20 nM FV-810, 50 uM PCPS, 25 C; competitor: OG488-BR.
Test [5] has the same target. Briefly: fluorescence anisotropy, displacement; unlabeled BR titrated into 30 nM OG488-BR, 20 nM FV-810, 50 uM PCPS; competitor: OG488-BR [inset]. The procedure:
as §1
In general terms: Fluorescence polarisation rises when a labelled molecule tumbles more slowly, as on binding a larger partner.

Test [6] shares this target. Description: fluorescence anisotropy, displacement; FVBR titrated into labeled active site-blocked FXa plus FVDT on PCPS liposomes; displaced ligand: labeled FXa.
For test [7] the target is unchanged. Briefly: fluorescence anisotropy; FV-810 titrated into 20 or 40 nM OG488-BR, 50 uM PCPS, 25 C. The procedure:
as §1
(§3) Steady-state fluorescence anisotropy was measured at 25° C. in a PTI Quanta-Master™ fluorescence spectrophotometer (Photon Technology International, Birmingham, N.J.) using excitation and emission wavelengths of 480 and 520 nm, respectively, with long-pass filters (KV500, CVI Melles Griot) in the emission beam.
as §2
Target sequence in this assay (P12259 other isoform, or with tags, fused parts or gaps, form in doubt): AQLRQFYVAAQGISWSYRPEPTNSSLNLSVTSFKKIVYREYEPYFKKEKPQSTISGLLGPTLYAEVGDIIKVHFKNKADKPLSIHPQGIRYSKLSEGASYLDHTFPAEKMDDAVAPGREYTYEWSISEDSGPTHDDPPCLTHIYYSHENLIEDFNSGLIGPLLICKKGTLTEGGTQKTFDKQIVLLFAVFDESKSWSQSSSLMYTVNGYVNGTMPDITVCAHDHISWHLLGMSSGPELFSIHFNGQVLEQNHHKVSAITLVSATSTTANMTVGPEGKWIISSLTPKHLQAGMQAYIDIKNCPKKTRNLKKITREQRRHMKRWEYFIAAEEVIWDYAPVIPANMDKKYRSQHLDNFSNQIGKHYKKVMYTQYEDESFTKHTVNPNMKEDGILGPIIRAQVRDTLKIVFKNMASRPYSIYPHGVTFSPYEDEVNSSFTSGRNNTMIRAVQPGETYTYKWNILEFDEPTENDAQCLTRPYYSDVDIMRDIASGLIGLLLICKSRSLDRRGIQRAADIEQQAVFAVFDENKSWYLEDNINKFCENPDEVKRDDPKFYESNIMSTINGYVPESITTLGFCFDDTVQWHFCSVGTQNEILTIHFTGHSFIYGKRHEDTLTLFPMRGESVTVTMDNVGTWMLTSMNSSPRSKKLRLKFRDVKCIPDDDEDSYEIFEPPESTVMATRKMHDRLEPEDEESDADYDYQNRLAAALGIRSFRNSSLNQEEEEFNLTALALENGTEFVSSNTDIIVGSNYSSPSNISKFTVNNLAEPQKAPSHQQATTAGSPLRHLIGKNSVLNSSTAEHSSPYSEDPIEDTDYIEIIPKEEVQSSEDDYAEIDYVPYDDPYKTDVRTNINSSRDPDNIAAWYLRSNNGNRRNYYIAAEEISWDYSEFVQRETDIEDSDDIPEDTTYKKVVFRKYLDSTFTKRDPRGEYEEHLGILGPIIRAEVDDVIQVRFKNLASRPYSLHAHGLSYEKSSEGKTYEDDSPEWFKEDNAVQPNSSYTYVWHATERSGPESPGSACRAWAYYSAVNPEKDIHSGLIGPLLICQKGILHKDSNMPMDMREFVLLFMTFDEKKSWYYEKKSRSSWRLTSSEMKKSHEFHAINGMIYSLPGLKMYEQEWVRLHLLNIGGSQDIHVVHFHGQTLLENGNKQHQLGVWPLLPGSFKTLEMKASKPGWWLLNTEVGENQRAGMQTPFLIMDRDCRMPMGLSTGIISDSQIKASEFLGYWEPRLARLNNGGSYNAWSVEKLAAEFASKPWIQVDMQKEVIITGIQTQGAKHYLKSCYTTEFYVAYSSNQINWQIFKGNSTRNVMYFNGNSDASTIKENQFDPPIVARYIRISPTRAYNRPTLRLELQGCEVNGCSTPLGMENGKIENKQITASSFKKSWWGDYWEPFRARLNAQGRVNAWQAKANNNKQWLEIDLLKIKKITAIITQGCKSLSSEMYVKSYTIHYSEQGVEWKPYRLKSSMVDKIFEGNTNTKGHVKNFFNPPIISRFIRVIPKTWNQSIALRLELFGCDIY

The target is the same in test [8]. Description: fluorescence anisotropy; buffer-pretreated protein titrated into 30 nM OG488-BR, 50 uM PCPS; n=1 assumed. The procedure:
(§4) FV-810, FV-810^R709Q (▴), FV-810^R1545Q (♦), and FV-810^QQ (▪) were pretreated with buffer (FIG. 14A) or thrombin (FIG. 14B).
as §3
Target sequence in this assay (P12259 other isoform, or with tags, fused parts or gaps, form in doubt): as above

The next test deals with T2, FV-810^R709Q (human, UniProt P12259 29-838; P12259 1520-2224).
T2 construct: range 1-810;range 1492-2196; mature numbering
The description is as above. The procedure:
as §4, §3

A further test has as its target T3, FV-810^R1545Q (human, UniProt P12259 29-838; P12259 1520-2224).
T3 construct: range 1-810;range 1492-2196; mature numbering
The description is as above. The procedure: as §4, §3

Test [9] deals with T4, FV-810^QQ (human, UniProt P12259 29-838; P12259 1520-2224).
T4 construct: range 1-810;range 1492-2196; Both thrombin sites (Arg709 and Arg1545) changed to Gln; the assay field says where thrombin pretreatment was used
Described as above. The procedure:
as §4, §3

The target of test [10] is T5, FV-810^R1545Q pretreated with thrombin (human, UniProt P12259 29-737; P12259 738-838; P12259 1520-2224).
T5 construct: Cleaved only at Arg709: B-domain remnant stays tethered to the light chain; also called thrombin-cleaved FV-810^R1545Q
Description: fluorescence anisotropy; thrombin-pretreated protein titrated into 30 nM OG488-BR, 50 uM PCPS; n=1 assumed. The procedure:
as §4, §3

For test [11], the target named is T4, FV-810^QQ. Described as above. The procedure: as §4, §3

T4 sequence (P12259 other isoform, or with tags, fused parts or gaps): as the sequence (P12259 other isoform, or with tags, fused parts or gaps, form in doubt) above, with R709Q, R864Q counted along it
T5 sequence (P12259 29-737, chain 1 of 2): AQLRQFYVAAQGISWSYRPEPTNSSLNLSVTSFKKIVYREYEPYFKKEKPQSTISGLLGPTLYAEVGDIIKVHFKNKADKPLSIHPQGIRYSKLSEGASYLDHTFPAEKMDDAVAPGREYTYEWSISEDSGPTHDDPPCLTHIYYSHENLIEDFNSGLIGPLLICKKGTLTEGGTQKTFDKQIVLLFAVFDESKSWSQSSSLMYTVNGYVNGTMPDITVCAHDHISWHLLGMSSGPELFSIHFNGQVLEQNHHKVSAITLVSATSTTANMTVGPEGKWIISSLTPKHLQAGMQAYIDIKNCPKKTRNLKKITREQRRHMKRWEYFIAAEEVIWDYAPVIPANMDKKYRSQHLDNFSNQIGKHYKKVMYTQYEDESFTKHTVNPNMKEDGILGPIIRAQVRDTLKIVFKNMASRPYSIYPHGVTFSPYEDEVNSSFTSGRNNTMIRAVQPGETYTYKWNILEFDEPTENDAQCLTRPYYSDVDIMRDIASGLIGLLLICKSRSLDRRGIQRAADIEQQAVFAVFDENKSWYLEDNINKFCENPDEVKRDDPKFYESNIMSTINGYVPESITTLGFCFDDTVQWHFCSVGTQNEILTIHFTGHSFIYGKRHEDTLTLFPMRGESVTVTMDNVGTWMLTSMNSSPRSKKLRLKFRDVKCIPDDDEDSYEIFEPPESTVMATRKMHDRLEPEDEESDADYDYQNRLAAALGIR
T5 sequence (P12259 other isoform, or with tags, fused parts or gaps R1545Q R1545Q, chain 2 of 2): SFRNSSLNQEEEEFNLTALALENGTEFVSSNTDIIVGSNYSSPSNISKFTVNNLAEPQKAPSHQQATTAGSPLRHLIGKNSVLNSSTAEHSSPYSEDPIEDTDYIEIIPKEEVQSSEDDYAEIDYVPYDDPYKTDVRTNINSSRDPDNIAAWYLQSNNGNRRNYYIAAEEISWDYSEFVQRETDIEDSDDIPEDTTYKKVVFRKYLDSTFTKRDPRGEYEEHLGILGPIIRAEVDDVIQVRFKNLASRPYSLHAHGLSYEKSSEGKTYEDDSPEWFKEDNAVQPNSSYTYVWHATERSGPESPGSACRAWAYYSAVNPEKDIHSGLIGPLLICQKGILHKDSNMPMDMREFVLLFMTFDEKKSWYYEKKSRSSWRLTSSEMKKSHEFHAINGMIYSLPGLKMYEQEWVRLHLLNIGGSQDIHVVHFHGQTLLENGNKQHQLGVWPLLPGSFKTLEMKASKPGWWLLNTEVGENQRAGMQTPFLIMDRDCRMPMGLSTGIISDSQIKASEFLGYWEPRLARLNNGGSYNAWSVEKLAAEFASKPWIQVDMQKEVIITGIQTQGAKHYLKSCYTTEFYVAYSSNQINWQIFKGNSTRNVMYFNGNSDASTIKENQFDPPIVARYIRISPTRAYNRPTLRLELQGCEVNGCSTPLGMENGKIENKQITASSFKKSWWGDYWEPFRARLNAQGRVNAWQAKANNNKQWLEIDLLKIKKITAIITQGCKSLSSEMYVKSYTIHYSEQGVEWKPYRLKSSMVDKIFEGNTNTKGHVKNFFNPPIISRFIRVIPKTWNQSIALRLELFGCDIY
T2 sequence (P12259 other isoform, or with tags, fused parts or gaps R709Q R709Q): as the sequence (P12259 other isoform, or with tags, fused parts or gaps, form in doubt) above, with R709Q counted along it
T3 sequence (P12259 other isoform, or with tags, fused parts or gaps R1545Q R1545Q): as the sequence (P12259 other isoform, or with tags, fused parts or gaps, form in doubt) above, with R864Q counted along it

B1: Factor V basic region peptide (FVBR), amino acids 951-1008 of Factor V (peptide)
peptide: SRAWGESTPLANKPGKQSGHPKFPRVRHKSLQVRQDGGKSRLKKSQFLIKTRKKKKEK
notes: Expressed in E. coli as a SUMO fusion; also called FV basic peptide; BR peptide
As to B1, the Kd – broadly, the equilibrium constant for the complex coming apart – was 2.1 nM in test [1], 2.2 nM in test [2] and 34.2 nM in test [3]. Moreover, the “IC50 (read off the curve)” value in test [4] is about 50 nM; in test [5], about 50 nM; in test [6], about 90 nM.

B2: Oregon Green 488 maleimide-modified BR (OG488-BR) (peptide)
peptide: C(Oregon Green 488 maleimide)SRAWGESTPLANKPGKQSGHPKFPRVRHKSLQVRQDGGKSRLKKSQFLIKTRKKKKEK
notes: also called fluorescently labeled FVBR
In the case of B2, the equilibrium dissociation constant (Kd) in test [7] was 2.07 nM; in test [8] it was 2.1 nM; with FV-810^R709Q it was 7.1 nM; with FV-810^R1545Q, 2 nM; with FV-810^QQ [9] it was 0.31 nM; in test [10], 30.3 nM. The dissociation constant (Kd) with FV-810^QQ [11] worked out at 1.3 nM.
